Data published in patent publication US6790444.

B1: chimeric mouse/human IgG1 anti-platelet mAb (7E3) (antibody, INN chains, looked up, V domains shown)
VH: EVQLQQSGTVLARPGASVKMSCEASGYTFTNYWMHWVKQRPGQGLEWIGAIYPGNSDTSYIQKFKGKAKLTAVTSTTSVYMELSSLTNEDSAVYYCTLYDGYYVFAYWGQGTLVTVSA
VL: EIVLTQSPVTLSVTPGDSVSLSCRASRDISNNLHWFQQTSHESPRLLIKYASQSMSGIPSRFSGSGSGTDFTLSINSVETEDFGMYFCQQTNSWPYTFGGGTKLEIK
modifications: chimeric IgG1
B2: p75-sf2 (complete p75 extracellular domain fused to the IgG1 heavy chain) (Fc fusion)
chain: QLPAQVAFTPYAPEPGSTCRLREYYDQTAQMCCSKCSPGQHAKVFCTKTSDTVCDSCEDSTYTQLWNWVPECLSCGSRCSSDQVETQACTREQNRICTCRPGWYCALSKQEGCRLCAPLRKCRPGFGVARPGTETSDVVCKPCAPGTFSNTTSSTDICRPHQICNVVAIPGNASMDAVCTSTSPTRSMAPGAVHLPQPVSTRSQHTQPTPEPSTAPSTSFLLPMGPSPPAEGSTGDGTLVTVSS

Columns and labels:
human lymphotoxin (TNFβ) = target: T1, human lymphotoxin (TNFβ) (human, UniProt P01374 35-205, limits assumed); assay: cell-based or functional assay
T1 sequence (looked up): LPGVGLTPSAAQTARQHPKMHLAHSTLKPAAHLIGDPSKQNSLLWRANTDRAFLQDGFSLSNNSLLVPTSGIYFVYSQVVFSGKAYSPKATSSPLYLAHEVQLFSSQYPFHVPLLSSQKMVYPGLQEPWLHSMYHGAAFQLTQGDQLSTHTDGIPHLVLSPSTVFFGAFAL

[1] = target: human tumor necrosis factor-α (TNFα) (human) (UniProt P01375); assay: cell-based or functional assay
Chain of human tumor necrosis factor-α (TNFα) (human) (P01375 77-233): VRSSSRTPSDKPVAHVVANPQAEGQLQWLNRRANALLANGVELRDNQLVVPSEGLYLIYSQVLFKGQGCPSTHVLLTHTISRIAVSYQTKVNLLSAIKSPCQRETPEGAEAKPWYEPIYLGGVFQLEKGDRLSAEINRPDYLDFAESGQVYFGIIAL

Row | Molecule | amount needed for the same degree of inhibition of TNFβ cytotoxicity, against p75P-sf2 (human lymphotoxin (TNFβ)) [fold] | IL-6 secreted by FS-4 fibroblasts; 0.3 ng/ml rhTNF, 4 µg/ml antibody [1] [ng/mL] | IL-6 secreted by FS-4 fibroblasts; 1.5 ng/ml rhTNF, 4 µg/ml antibody [1] [ng/mL] | IL-6 secreted by FS-4 fibroblasts; 7.5 ng/ml rhTNF, 4 µg/ml antibody [1] [ng/mL]
1 | p55-sf2 (p55 TNF receptor / IgG1 heavy chain single fusion with truncated light chain JCK) (from UniProt P19438 32-188) (Fc fusion) | 3 |  |  | 
2 | B1 |  | 1.6 | 1.96 | 2.16
3 | B2 | 3 |  |  | 
